According to patent US20230250154A1 (CYTONICS, published 2023):

T1: Cathepsin G (UniProt P08311 21-244)
T1 sequence (looked up): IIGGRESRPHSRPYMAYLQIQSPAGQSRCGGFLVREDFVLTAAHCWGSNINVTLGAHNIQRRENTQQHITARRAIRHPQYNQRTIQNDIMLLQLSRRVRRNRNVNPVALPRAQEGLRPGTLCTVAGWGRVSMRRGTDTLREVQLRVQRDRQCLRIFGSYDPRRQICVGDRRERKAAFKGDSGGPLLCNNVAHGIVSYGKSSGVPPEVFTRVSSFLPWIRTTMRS

T2: MMP2 (human, UniProt P08253 110-660, limits assumed)
T2 sequence (looked up): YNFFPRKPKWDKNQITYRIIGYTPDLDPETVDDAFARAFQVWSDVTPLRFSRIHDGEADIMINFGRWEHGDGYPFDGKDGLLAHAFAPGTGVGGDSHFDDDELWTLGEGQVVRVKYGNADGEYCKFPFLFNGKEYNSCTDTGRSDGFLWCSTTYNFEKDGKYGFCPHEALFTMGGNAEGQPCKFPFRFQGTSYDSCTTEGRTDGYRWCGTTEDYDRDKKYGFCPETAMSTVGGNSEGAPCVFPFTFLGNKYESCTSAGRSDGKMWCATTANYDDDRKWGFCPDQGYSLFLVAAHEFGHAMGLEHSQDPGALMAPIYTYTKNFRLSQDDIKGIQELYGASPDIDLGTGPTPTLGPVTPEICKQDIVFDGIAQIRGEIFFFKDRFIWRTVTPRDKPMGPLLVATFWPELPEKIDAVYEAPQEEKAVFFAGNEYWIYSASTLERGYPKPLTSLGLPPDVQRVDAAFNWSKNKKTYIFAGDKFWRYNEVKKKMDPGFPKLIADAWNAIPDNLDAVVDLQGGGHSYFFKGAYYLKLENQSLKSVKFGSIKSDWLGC

T3: MMP1 (human, UniProt P03956 100-469, limits assumed)
T3 sequence (looked up): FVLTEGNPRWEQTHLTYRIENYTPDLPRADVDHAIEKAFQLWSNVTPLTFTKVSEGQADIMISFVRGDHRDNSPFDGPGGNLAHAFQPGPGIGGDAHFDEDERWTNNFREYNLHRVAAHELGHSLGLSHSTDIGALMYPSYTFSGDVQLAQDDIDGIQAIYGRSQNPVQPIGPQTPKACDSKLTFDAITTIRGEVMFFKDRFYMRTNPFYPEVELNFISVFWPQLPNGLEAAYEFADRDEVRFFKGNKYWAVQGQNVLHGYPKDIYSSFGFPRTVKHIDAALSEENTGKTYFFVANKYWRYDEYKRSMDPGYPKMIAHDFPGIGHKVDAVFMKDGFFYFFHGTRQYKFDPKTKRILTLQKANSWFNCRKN

T4: ADAMTS5 (human, UniProt Q9UNA0 262-622, limits assumed)
T4 sequence (looked up): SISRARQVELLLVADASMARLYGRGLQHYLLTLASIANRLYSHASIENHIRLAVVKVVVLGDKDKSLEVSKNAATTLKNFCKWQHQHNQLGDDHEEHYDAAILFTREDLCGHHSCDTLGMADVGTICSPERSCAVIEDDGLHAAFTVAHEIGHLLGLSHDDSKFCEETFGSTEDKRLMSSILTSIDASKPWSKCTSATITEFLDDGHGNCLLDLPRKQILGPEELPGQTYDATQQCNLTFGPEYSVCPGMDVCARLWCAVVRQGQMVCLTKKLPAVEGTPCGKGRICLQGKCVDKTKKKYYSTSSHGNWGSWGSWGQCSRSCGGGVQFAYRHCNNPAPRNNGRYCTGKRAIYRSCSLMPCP

T5: ADAMTS4 (human, UniProt O75173 213-685, limits assumed)
T5 sequence (looked up): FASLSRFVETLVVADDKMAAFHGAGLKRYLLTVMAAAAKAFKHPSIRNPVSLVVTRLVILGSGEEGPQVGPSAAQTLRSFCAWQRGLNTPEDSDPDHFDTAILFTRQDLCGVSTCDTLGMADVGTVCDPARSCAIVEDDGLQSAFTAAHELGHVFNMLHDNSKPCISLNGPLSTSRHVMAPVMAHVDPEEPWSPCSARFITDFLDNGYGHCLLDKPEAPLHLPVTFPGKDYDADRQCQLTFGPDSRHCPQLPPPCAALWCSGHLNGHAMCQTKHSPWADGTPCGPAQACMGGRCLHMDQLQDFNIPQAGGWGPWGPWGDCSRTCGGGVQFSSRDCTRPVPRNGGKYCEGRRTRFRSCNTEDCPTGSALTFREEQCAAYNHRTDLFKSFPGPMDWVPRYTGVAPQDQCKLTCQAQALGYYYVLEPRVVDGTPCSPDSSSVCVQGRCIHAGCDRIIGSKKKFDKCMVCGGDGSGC


What was measured:
Test in all cases: cell-based or functional assay
[1] = target: bovine trypsin (bovine, UniProt P00760 24-246)
[2] = target: chymotrypsin
[3] = target: Elastase
[4] = target: T1, Cathepsin G
[5] = target: T2, MMP2
[6] = target: T3, MMP1
[7] = target: MMP8 (human, UniProt P22894 101-467, limits assumed)
[8] = target: MMP3 (human, UniProt P08254 100-477, limits assumed)
[9] = target: MMP13 (human, UniProt P45452 104-471, limits assumed)
[10] = target: MMP9 (human, UniProt P14780 107-707, limits assumed)
[11] = target: T4, ADAMTS5
[12] = target: T5, ADAMTS4
[13] = target: MMP12 (human, UniProt P39900 106-470, limits assumed)
MMP12, sequence (P39900 106-470 limits assumed): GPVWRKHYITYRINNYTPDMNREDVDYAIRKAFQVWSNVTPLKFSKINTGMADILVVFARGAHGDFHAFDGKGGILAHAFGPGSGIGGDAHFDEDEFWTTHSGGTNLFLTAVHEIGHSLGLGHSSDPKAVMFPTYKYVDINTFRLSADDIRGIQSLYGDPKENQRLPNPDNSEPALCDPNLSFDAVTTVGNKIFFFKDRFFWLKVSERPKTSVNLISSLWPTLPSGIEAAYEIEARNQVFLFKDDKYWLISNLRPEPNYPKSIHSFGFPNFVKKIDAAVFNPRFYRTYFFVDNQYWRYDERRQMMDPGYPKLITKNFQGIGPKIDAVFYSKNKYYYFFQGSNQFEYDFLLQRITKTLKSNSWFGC

MMP3, sequence (P08254 100-477 limits assumed): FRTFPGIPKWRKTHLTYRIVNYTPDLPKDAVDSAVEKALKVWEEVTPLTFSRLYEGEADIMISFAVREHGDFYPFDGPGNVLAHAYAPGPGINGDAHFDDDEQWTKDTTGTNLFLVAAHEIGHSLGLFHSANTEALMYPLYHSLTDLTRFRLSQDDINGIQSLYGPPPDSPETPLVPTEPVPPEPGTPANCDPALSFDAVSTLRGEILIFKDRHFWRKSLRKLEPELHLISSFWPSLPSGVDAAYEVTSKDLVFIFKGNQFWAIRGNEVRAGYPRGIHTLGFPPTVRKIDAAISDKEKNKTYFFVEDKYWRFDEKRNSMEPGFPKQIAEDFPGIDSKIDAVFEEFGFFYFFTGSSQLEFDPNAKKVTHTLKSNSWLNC
bovine trypsin, sequence (P00760 24-246): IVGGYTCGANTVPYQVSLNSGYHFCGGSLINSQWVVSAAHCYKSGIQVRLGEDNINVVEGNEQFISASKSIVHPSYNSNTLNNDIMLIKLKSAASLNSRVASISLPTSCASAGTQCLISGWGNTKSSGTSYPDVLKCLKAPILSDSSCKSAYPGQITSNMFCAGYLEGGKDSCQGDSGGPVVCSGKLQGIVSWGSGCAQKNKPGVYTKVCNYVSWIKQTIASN
MMP9, sequence (P14780 107-707 limits assumed): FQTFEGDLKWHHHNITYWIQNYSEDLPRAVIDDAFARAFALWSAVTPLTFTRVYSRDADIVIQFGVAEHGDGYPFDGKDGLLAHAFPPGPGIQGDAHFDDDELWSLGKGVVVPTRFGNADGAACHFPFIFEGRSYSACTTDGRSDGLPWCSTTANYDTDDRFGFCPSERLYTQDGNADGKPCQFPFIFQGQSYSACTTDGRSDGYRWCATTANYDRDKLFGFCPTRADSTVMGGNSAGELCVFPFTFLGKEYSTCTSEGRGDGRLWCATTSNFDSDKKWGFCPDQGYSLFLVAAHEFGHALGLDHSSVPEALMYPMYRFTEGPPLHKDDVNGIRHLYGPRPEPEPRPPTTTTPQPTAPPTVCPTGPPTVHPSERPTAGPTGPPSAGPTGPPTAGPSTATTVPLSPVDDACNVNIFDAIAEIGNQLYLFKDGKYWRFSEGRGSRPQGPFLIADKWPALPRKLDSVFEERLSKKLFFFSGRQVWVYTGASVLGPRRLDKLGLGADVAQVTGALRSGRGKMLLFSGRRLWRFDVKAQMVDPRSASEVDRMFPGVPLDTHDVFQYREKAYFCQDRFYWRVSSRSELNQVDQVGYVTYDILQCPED
MMP8, sequence (P22894 101-467 limits assumed): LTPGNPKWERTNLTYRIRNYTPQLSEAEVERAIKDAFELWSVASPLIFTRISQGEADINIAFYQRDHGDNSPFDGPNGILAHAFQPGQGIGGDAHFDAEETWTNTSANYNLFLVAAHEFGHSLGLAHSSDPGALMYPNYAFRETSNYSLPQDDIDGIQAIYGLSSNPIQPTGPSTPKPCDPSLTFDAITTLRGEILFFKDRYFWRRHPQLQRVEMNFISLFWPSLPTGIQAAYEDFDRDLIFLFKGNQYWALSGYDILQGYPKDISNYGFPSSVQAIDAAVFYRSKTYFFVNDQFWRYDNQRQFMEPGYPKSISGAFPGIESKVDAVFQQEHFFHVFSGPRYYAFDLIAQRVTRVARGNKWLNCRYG

Binder | Protease Inhibition (% of WT) [1] | Protease Inhibition (% of WT) [2] | Protease Inhibition (% of WT) [3] | Protease Inhibition (% of WT) [4] | Protease Inhibition (% of WT) [5] | Protease Inhibition (% of WT) [6] | Protease Inhibition (% of WT) [7] | Protease Inhibition (% of WT) [8] | Protease Inhibition (% of WT) [9] | Protease Inhibition (% of WT) [10] | Protease Inhibition (% of WT) [11] | Protease Inhibition (% of WT) [12] | Protease Inhibition (% of WT) [13]
Variant A2M, bait region SEQ ID NO 126 (other) SVSGKPQYMVLVPSLLHTETTEKGCVLLSYLNETVTVSASLESVRGNRSLFTDLEAENDVLHCVAFAVPKSSSNEEVMFLTVQVKGPTQEFKKRTTVMVKNEDSLVFVQTDKSIYKPGQTVKFRVVSMDENFHPLNELIPLVYIQDPKGNRIAQWQSFQLEGGLKQFSFPLSSEPFQGSYKVVVQKKSGGRTEHPFTVEEFVLPKFEVQVTVPKIITILEEEMNVSVCGLYTYGKPVPGHVTVSICRKYSDASDCHGEDSQAFCEKFSGQLNSHGCFYQQVKTKVFQLKRKEYEMKLHTEAQIQEEGTVVELTGRQSSEITRTITKLSFVKVDSHFRQGIPFFGQVRLVDGKGVPIPNKVIFIRGNEANYYSNATTDEHGLVQFSINTTNVMGTSLTVRVNYKDRSPCYGYQWVSEEHEEAHHTAYLVFSPSKSFVHLEPMSHELPCGHTQTVQAHYILNGGTLLGLKKLSFYYLIMAKGGIVRTGTHGLLVKQEDMKGHFSISIPVKSDIAPVARLLIYAVLPTGDVIGDSAKYDVENCLANKVDLSFSPSQSLPASHAHLRVTAAPQSVCALRAVDQSVLLMKPDAELSASSVYNLLPEKDLTGFPGPLNDQDDEDCINRHNVYINGITYTPVSSTNEKDMYSFLEDMGLKAFTNSKIRKPKMCPQLEQYEMHGPEGEGEGEGIPENFFGVSEDLVVQISELEGRGSVEEPHTKLRKYFPETWIWDLVVVNSAGVAEVGVTVPDTITEWKAGAFCLSEDAGLGISSTASLRAFQPFFVELTMPYSVIRGEAFTLKATVLNYLPKCIRVSVQLEASPAFLAVPVEKEQAPHCICANGRQTVSWAVTPKSLGNVNFTVSAEALESQELCGTEVPSVPEHGRKDTVIKPLLVEPEGLEKETTFNSLLCPSGGEVSEELSLKLPPNVVEESARASVSVLGDILGSAMQNTQNLLQMPYGCGEQNMVLFAPNIYVLDYLNETQQLTPEIKSKAIGYLNTGYQRQLNYKHYDGSYSTFGERYGRNQGNTWLTAFVLKTFAQARAYIFIDEAHITQALIWLSQRQKDNGCFRSSGSLLNNAIKGGVEDEVTLSAYITIALLEIPLTVTHPVVRNALFCLESAWKTAQEGDHGSHVYTKALLAYAFALAGNQDKRKEVLKSLNEEAVKKDNSVHWERPQKPKAPVGHFYEPQAPSAEVEMTSYVLLAYLTAQPAPTSEDLTSATNIVKWITKQQNAQGGFSSTQDTVVALHALSKYGAATFTRTGKAAQVTIQSSGTFSSKFQVDNNNRLLLQQVSLPELPGEYSMKVTGEGCVYLQTSLKYNILPEKEEFPFALGVQTLPQTCDEPKAHTSFQISLSVSYTGSRSASNMAIVDVKMVSGFIPLKPTVKMLERSNHVSRTEVSSNHVLIYLDKVSNQTLSLFFTVLQDVPVRDLKPAIVKVYDYYETDEFAIAEYNAPCSKDLGNADYKDDDDKGASHHHHHH | 86 % of WT | 50 % of WT | 105 % of WT | 311 % of WT | 61 % of WT | 379 % of WT | 163 % of WT | 130 % of WT | 117 % of WT | 500 % of WT | 480 % of WT | 115 % of WT | 132 % of WT
Variant A2M, bait region SEQ ID NO 127 (other) SVSGKPQYMVLVPSLLHTETTEKGCVLLSYLNETVTVSASLESVRGNRSLFTDLEAENDVLHCVAFAVPKSSSNEEVMFLTVQVKGPTQEFKKRTTVMVKNEDSLVFVQTDKSIYKPGQTVKFRVVSMDENFHPLNELIPLVYIQDPKGNRIAQWQSFQLEGGLKQFSFPLSSEPFQGSYKVVVQKKSGGRTEHPFTVEEFVLPKFEVQVTVPKIITILEEEMNVSVCGLYTYGKPVPGHVTVSICRKYSDASDCHGEDSQAFCEKFSGQLNSHGCFYQQVKTKVFQLKRKEYEMKLHTEAQIQEEGTVVELTGRQSSEITRTITKLSFVKVDSHFRQGIPFFGQVRLVDGKGVPIPNKVIFIRGNEANYYSNATTDEHGLVQFSINTTNVMGTSLTVRVNYKDRSPCYGYQWVSEEHEEAHHTAYLVFSPSKSFVHLEPMSHELPCGHTQTVQAHYILNGGTLLGLKKLSFYYLIMAKGGIVRTGTHGLLVKQEDMKGHFSISIPVKSDIAPVARLLIYAVLPTGDVIGDSAKYDVENCLANKVDLSFSPSQSLPASHAHLRVTAAPQSVCALRAVDQSVLLMKPDAELSASSVYNLLPEKDLTGFPGPLNDQDDEDCINRHNVYINGITYTPVSSTNEKDMYSFLEDMGLKAFTNSKIRKPKMCPQLEQYEMHGPIPENFFGVSELEGRGSEAIPMSIPTEGEGEGEGVEEPHTKLRKYFPETWIWDLVVVNSAGVAEVGVTVPDTITEWKAGAFCLSEDAGLGISSTASLRAFQPFFVELTMPYSVIRGEAFTLKATVLNYLPKCIRVSVQLEASPAFLAVPVEKEQAPHCICANGRQTVSWAVTPKSLGNVNFTVSAEALESQELCGTEVPSVPEHGRKDTVIKPLLVEPEGLEKETTFNSLLCPSGGEVSEELSLKLPPNVVEESARASVSVLGDILGSAMQNTQNLLQMPYGCGEQNMVLFAPNIYVLDYLNETQQLTPEIKSKAIGYLNTGYQRQLNYKHYDGSYSTFGERYGRNQGNTWLTAFVLKTFAQARAYIFIDEAHITQALIWLSQRQKDNGCFRSSGSLLNNAIKGGVEDEVTLSAYITIALLEIPLTVTHPVVRNALFCLESAWKTAQEGDHGSHVYTKALLAYAFALAGNQDKRKEVLKSLNEEAVKKDNSVHWERPQKPKAPVGHFYEPQAPSAEVEMTSYVLLAYLTAQPAPTSEDLTSATNIVKWITKQQNAQGGFSSTQDTVVALHALSKYGAATFTRTGKAAQVTIQSSGTFSSKFQVDNNNRLLLQQVSLPELPGEYSMKVTGEGCVYLQTSLKYNILPEKEEFPFALGVQTLPQTCDEPKAHTSFQISLSVSYTGSRSASNMAIVDVKMVSGFIPLKPTVKMLERSNHVSRTEVSSNHVLIYLDKVSNQTLSLFFTVLQDVPVRDLKPAIVKVYDYYETDEFAIAEYNAPCSKDLGNADYKDDDDKGASHHHHHH | 84 % of WT | 25 % of WT | 102 % of WT | 324 % of WT | 118 % of WT | 327 % of WT | 210 % of WT | 130 % of WT | 131 % of WT | 500 % of WT | 205 % of WT | 82 % of WT | 170 % of WT
